The assay has as its target T1, biotinylated natural Ara h 2 (Arachis hypogaea (peanut), natural …, UniProt Q6PSU2, biotin (position not given)).
T1 construct: Ara h 2, peanut allergen, 'natural' (not recombinant) protein; Natural Ara h 2 from peanut may be a mixture of isoforms; also called Biotin Natural Ara h 2; source: bought: InBio (biotinylated natural Ara h 2)
The experiment in a line: BLI; in-tandem epitope binning; biotinylated natural Ara h 2 loaded on streptavidin sensors; primary mAbs 10 ug/mL, secondary mAbs 5 ug/mL in kinetics buffer (Dulbecco's PBS, 1% BSA, 0.02% Tween-20); Octet R2. The note with it: both partners purified. On the technique in general: Biolayer interferometry detects binding as a change in optical thickness at a sensor tip.

The text below walks through data of paper doi:10.1101/2024.05.08.592267, “Origins and diversity of pan-isotype human bone marrow plasma cells” (bioRxiv, 2024).

T1 sequence (Q6PSU2 whole entry, looked up, canonical isoform): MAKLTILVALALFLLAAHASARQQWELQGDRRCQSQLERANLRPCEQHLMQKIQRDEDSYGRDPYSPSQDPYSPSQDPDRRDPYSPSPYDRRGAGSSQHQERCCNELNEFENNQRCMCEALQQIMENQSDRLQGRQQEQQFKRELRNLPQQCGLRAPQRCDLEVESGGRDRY

B1: 13T5 (monoclonal Ara h 2 specific antibody, Epitope 2) (antibody, V domains shown)
VH: QVQLQESGPGLVKPSETLSLTCTVSGGSMSSYYWGWIRQPAGRGLEWIGRIFTTGSTIYNASLNSRVSMSVDTSKNQFSLKLTSVTAADTALYFCVRDRRGRSHDSNWYWYFDLWGRGTLVTVSS
VL: DIVMTQSPSSLSASVGDRVIITCRTSQTLSRNLNWYQQKPGEAPKLLIYGASTLQSGVPSRFTGSGSGTDFTLIISSLQPEDFATYYCQQSDNTPRTFGQGTKVEIK
In the case of B1, the binding result was “binds”.
